Here are results for 11 molecules from patent US20050203007A1 (REGENTS OF THE UNIVERSITY OF MICHIGAN, published 2005).

The target of experiment [1] is T1, secreted, soluble furin (human, UniProt P09958 108-715, limits assumed).
T1 construct: Secreted, soluble construct; also called human furin
As to the kind of experiment: rapid furin inhibition assay; table lists substitutions with equal or enhanced inhibition of furin relative to the template. On the procedure: 3. Rapid screening of libraries. Libraries were introduced into E. coli BL21 (DE3) cells and individual, cloned transformants were grown by shaking at 37° C. in 200 μl LB containing […] kanamycin in 96-well, 0.45 μm GHP membrane filter plates (Gelman) (FIG. 2). When O.D. 600 values reached 0.4, 60 μl of culture were transferred to secondary 96-well plates (Falcon), adjusted to 10% glycerol, and stored at −80° C. These frozen stocks served as master copies of the libraries. IPTG was added to the cultures to a final concentration of 1 mM, and the cultures were allowed to express eglin c variants for one hour in the filter plate. Expressed eglin c variants were extracted from the cells with 50 mM Tris-HCl pH 8.0 containing 2 mM EDTA following freezing and thawing. These extracts were collected as filtrates by centrifugation of the filter plate above a second plate. The filtrates, representing partially purified eglin c variants, were analyzed using a rapid fluorescence-based assay for processing enzyme inhibition as described below in Section 5. […] Frozen cells were cultured in 50 to 100 ml culture volumes, and DNA maxipreps were performed; the DNA preparations were then sequenced by automated DNA sequencing. Selected variants were expressed and purified on a larger scale, and affinities for furin or Kex2 were examined quantitatively (see below).
5. Rapid protease inhibition assay. Novel eglin variants were diluted 50-fold and incubated with secreted, soluble furin (0.5 nM) for 15 min in 96-well plates. The furin substrate (Boc-Arg-Val-Arg-Arg-MCA) was added, and release of AMC was monitored continuously in a 96-well fluorescence plate reader for 20 min, as described under Example 1. […] The plasmid DNA encoding such eglin c variant inhibitors were isolated and sequenced.

Experiment [2] concerns the target T2, secreted, soluble Kex2 (Saccharomyces cerevisiae, UniProt P13134 114-613, limits assumed).
T2 construct: Secreted, soluble construct; also called kexin
T2 sequence (looked up): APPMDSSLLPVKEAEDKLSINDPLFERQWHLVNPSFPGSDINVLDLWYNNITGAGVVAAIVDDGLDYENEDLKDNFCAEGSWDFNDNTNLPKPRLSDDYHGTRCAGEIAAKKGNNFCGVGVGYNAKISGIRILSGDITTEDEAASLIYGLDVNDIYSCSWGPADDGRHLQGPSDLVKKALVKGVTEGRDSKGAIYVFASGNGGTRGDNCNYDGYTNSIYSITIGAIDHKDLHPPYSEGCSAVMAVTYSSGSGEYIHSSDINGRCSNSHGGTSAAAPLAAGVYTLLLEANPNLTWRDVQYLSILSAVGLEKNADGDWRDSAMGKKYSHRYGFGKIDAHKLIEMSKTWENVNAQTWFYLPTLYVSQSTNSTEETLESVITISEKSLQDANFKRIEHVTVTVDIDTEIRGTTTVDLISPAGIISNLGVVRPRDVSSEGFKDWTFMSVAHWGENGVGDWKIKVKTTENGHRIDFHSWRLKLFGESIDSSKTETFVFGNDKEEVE
As to the kind of experiment: affinity of purified variants, enzyme inhibition.

Experiment [3] deals with T2, secreted, soluble Kex2. Briefly: enzyme inhibition, purified variant; Kassoc.
Experiment [4] deals with T1, secreted, soluble furin. As to the kind of experiment: enzyme inhibition, purified variant; Kassoc.
Experiment [5] has as its target T3, human PC7 (human, UniProt Q16549 142-667, limits assumed).
T3 sequence (looked up): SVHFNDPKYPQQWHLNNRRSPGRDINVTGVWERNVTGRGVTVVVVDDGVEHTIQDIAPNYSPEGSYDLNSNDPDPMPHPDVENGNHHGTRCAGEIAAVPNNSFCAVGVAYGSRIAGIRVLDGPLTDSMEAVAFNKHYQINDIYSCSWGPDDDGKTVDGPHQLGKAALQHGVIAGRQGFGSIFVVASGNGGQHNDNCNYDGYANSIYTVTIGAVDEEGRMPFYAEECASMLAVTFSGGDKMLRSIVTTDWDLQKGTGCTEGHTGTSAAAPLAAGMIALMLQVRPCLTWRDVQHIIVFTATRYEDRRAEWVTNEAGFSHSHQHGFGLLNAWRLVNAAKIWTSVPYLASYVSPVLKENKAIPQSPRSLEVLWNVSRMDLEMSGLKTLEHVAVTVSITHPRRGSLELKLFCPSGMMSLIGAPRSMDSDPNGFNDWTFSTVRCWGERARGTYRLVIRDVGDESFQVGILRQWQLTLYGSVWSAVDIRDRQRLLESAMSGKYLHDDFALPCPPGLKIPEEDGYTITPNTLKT
Briefly: enzyme inhibition, purified variant; Kassoc.

The target in experiment [6] is T2, secreted, soluble Kex2. Briefly: enzyme inhibition, purified variant.
The target in experiment [7] is T1, secreted, soluble furin. Briefly: enzyme inhibition, purified variant.
The target in experiment [8] is T3, human PC7. As to the kind of experiment: enzyme inhibition, purified variant.
Experiment [9] deals with T2, secreted, soluble Kex2. Briefly: enzyme inhibition, purified variant. On the procedure: (§1) Affinities of eglin variants with secreted, soluble Kex2 (hereafter “Kex2”; Brenner, C. and Fuller, R. S. (1992) Proc. Natl. Acad. Sci. USA 89: 922-926) and secreted, soluble furin (hereafter, “furin”; Bravo, D. A. et al (1994) J. Biol. Chem. 269: 25830-25837; and Komiyama & Fuller (2000) Biochemistry 39: 15156-15165) were measured by incubating variants with the enzymes (˜0.5 to 2.0 nM) for 45 min to 1 h at 21° C. in one of two enzyme assay buffers. For Kex2, the buffer was 200 mM Bistris (pH 7.27) containing 1 mM CaCl₂ and 0.1% Triton X-100; and for furin, the buffer was 20 mM NaMES (pH 7.0) containing 1 mM CaCl₂ and 0.1% Triton X-100 for furin. 100 to 200 μL aliquots of reaction mixtures were transferred into triplicate wells of opaque 96 well plates (Costar), and residual enzyme activity was measured with an fmax fluorescence micro plate reader (Molecular Devices) by monitoring hydrolysis of a fluorogenic substrate Boc-Arg-Val-Arg-Arg-MCA. Data were graphically analyzed (KaleidaGraph) with an equation developed by Green and Work (1953). Site-directed mutagenesis at P2 and P6 of eglin c generated temporary inhibitors (Table 3) and exhausted possibility to improve affinity further with this approach.
This is another data set of the same source.

Experiment [10] deals with T1, secreted, soluble furin. As to the kind of experiment: enzyme inhibition, purified variant. On the procedure:
as §1
The source holds these as a separate data set.

Experiment [11] deals with T2, secreted, soluble Kex2. Briefly: enzyme inhibition, fluorogenic substrate; * temporary inhibition. On the procedure: as §1
For experiment [12], the target named is T1, secreted, soluble furin. Described as above. Here is the method: as §1
The target in experiment [13] is T2, secreted, soluble Kex2. Briefly: equilibrium enzyme inhibition, fluorogenic substrate. On the procedure:
as §1

T1 sequence (P09958 108-715 limits assumed): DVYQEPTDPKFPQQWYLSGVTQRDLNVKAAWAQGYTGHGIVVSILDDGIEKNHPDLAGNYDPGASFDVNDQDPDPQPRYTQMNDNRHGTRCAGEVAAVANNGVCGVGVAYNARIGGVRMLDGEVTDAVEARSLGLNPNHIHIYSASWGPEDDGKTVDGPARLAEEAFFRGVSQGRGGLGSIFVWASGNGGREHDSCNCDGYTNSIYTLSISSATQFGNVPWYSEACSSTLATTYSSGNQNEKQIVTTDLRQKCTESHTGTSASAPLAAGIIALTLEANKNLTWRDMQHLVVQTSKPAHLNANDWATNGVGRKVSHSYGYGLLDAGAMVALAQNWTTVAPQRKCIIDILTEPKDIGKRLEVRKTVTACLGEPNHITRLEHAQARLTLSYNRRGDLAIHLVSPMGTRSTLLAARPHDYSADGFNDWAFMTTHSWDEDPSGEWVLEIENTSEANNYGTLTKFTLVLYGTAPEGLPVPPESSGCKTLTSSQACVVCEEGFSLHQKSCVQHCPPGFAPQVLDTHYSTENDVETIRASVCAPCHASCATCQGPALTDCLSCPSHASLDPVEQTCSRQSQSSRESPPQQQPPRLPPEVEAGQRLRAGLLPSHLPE

B1: Glu39Cys-R4R1-eglin (designed binder)
chain: SMGSELKSFPEVVGKTVDQAREYFTLHYPQYDVYFLPCGSRVTRDLRYNRVRVFYNPGTNVVNHVPHVG
Turning to B1, the binding result in [1] and in experiment [2] was “binds” in each case.

B2: Tyr49Asp-R4R1-eglin (designed binder)
chain: SMGSELKSFPEVVGKTVDQAREYFTLHYPQYDVYFLPEGSRVTRDLRDNRVRVFYNPGTNVVNHVPHVG
notes: R4R1 template; N-terminal Met removed; also called Asp49-R4R1-eglin; Asp49-R4R1-
Consider B2, for which the Ka in experiment [3] came to 1.8e+10 M⁻¹; in [4] it was 3e+09 M⁻¹; in experiment [5], 5.6e+08 M⁻¹. The Ki (commonly a dissociation constant, usually derived from enzyme kinetics or from competition with a known ligand) in [6] was determined as 0.056 nM; in experiment [7] it was 0.3 nM; in [8], 1.8 nM; in experiment [9], 0.045 nM; in experiment [10], 0.33 nM. For the same molecule, the “Ki ratio (to R4R1- template)” value in experiment [9] was 0.05; in experiment [10], 0.132. Besides, the “fold enhanced affinity (relative to R4R1-eglin)” value in [9] amounted to 16 fold; in experiment [10], 10 fold.

B3: K2R1-eglin (designed binder)
chain: SMGSELKSFPEVVGKTVDQAREYFTLHYPQYDVYFLPEGSPVKRDLRYNRVRVFYNPGTNVVNHVPHVG
notes: N-terminal Met removed
As for B3, the Ki in experiment [11] was 0.67 nM; in [12], 100 nM.

B4: Glu39Gly-R4R1-eglin (designed binder)
chain: SMGSELKSFPEVVGKTVDQAREYFTLHYPQYDVYFLPGGSRVTRDLRYNRVRVFYNPGTNVVNHVPHVG
On to B4, for which the binding result in [1] and in [2] was “binds” each time.

B5: M4K2R1-eglin (designed binder)
chain: SMGSELKSFPEVVGKTVDQAREYFTLHYPQYDVYFLPEGSMVKRDLRYNRVRVFYNPGTNVVNHVPHVG
notes: N-terminal Met removed
B5: the Ki in experiment [11] is 0.59 nM; in experiment [12], 83 nM.

B6: Glu39His-R4R1-eglin (designed binder)
chain: SMGSELKSFPEVVGKTVDQAREYFTLHYPQYDVYFLPHGSRVTRDLRYNRVRVFYNPGTNVVNHVPHVG
Regarding B6, the binding result in [1] and in experiment [2] was “binds” each time.

B7: Glu39Ser-R4R1-eglin (designed binder)
chain: SMGSELKSFPEVVGKTVDQAREYFTLHYPQYDVYFLPSGSRVTRDLRYNRVRVFYNPGTNVVNHVPHVG
With B7, the binding result in [1] and in [2] was “binds” throughout.

B8: Glu39Pro-R4R1-eglin (designed binder)
chain: SMGSELKSFPEVVGKTVDQAREYFTLHYPQYDVYFLPPGSRVTRDLRYNRVRVFYNPGTNVVNHVPHVG
Regarding B8, the binding result in experiment [1] and in experiment [2] was “binds” throughout.

B9: Glu39Tyr-R4R1-eglin (designed binder)
chain: SMGSELKSFPEVVGKTVDQAREYFTLHYPQYDVYFLPYGSRVTRDLRYNRVRVFYNPGTNVVNHVPHVG
As to B9, the binding result in experiment [1] and in experiment [2] was “binds” in each case.

B10: R6R4R1-eglin (designed binder)
chain: SMGSELKSFPEVVGKTVDQAREYFTLHYPQYDVYFLPERSRVTRDLRYNRVRVFYNPGTNVVNHVPHVG
notes: N-terminal Met removed; also called Gly40 Arg on R4R1-template
As to B10, the Ki in experiment [13] came out at 0.29 nM; in experiment [12], 2 nM.

B11: R4K2R1-eglin (designed binder)
chain: SMGSELKSFPEVVGKTVDQAREYFTLHYPQYDVYFLPEGSRVKRDLRYNRVRVFYNPGTNVVNHVPHVG
notes: N-terminal Met removed
Regarding B11, the Ki in experiment [11] and in experiment [12] was around 0.5 nM throughout.
